Experimental findings from PMC2704923 are described below.

Data set [1] concerns CENP-N K15A (Homo sapiens). The experiment in a line: EMSA. For orientation: Mobility shift assays separate free from complexed probe on a gel.
Data set [2] relates to CENP-N R124A (Homo sapiens). The experiment in a line: EMSA.
In data set [3] the target is H3^CATD mononucleosome, reconstituted with alpha-satellite DNA. The experiment in a line: native gel or EMSA.
For the next data set, the system named is CENP-N (Homo sapiens). Description: EMSA.

CENP-N (wildtype), 35S-labelled, in vitro translated, sequence (Q96H22 whole entry): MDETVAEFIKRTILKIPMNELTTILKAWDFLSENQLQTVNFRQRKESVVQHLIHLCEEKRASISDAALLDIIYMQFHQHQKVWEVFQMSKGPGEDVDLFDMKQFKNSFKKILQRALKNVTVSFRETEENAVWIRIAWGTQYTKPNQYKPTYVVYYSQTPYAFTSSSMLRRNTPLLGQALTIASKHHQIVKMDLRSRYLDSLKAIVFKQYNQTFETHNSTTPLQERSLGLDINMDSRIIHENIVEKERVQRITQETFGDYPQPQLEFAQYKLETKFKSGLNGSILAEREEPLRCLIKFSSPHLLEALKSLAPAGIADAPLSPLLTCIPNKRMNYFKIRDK

As usually defined, the Kd is the concentration at which binding is half-saturated. A low value points to a tighter complex. Regarding CENP-A nucleosome, alpha-satellite, the figures for the Kd in data set [1] and in data set [2] were 297 nM and 72 nM, respectively.

As to “CENP-N (wildtype), 35S-labelled, in vitro translated (from UniProt Q96H22 1-339) (natural protein)”, the Kd in data set [3] came to 163 nM.

In the data set on CENP-N (Homo sapiens), H3CATD nucleosome, alpha-satellite had an equilibrium dissociation constant (Kd) of 163 nM.
